Measured values as given in US12077763B2, “RNA-based control of powdery mildew” (Greenlight Biosciences, Inc., priority 2021, dated 2024).

B1: GS3361 (nucleic acid)
sense: AAUAAGUGUCUGGAUUGUUGAAUGGGAUUCUUUUUAGUCGAUCAAUUUCAAUUAACUCAUAACGCAGAAAUUUCUUAAAAUUGAACGAUUUAUAGGAACCGAUGUGAAAUUUUCUUCAAUCUCCAUGUCAAUCGCAGAUGUGGGCAAAAAAGAUUGGGAAGAGAAUUCUUAGUUAUAUUUCAUUUGAAUACUAUUGGGGUAAUGCAUGUCCAAAGAGUCUCGUACCAAGAGAUACCUUUAUCUGGAAAUAAUUAGAAGAUUUACCCGUCUUACCUUGAUGAAUUGUGUGUUAGAGAUACACCAUGGCUAAGAUAUUAAUAUCUAUUUAGUUUGGGAAGUUGAUGACGAUACAUCACAGUUCUCUGUAAAUUUUGUUAUUUCCUCUAAUAUCAUUAA
antisense: UUAAUGAUAUUAGAGGAAAUAACAAAAUUUACAGAGAACUGUGAUGUAUCGUCAUCAACUUCCCAAACUAAAUAGAUAUUAAUAUCUUAGCCAUGGUGUAUCUCUAACACACAAUUCAUCAAGGUAAGACGGGUAAAUCUUCUAAUUAUUUCCAGAUAAAGGUAUCUCUUGGUACGAGACUCUUUGGACAUGCAUUACCCCAAUAGUAUUCAAAUGAAAUAUAACUAAGAAUUCUCUUCCCAAUCUUUUUUGCCCACAUCUGCGAUUGACAUGGAGAUUGAAGAAAAUUUCACAUCGGUUCCUAUAAAUCGUUCAAUUUUAAGAAAUUUCUGCGUUAUGAGUUAAUUGAAAUUGAUCGACUAAAAAGAAUCCCAUUCAACAAUCCAGACACUUAUU
B2: GS3445 (nucleic acid)
sense: GAAGACCAAGCUAGAGCGAGUACAAAAACAUCCCGCAACAUAUCAAUGUCAUCUUUGCCCCAAAAAAUUUACUCGCGCCUAUAAUCUUCGCUCCCAUCUCCGAACGCAUACAAACGAGCGACCUUUUAUCUGUUCCAAGUGCACAAAAGCUUUUGCGCGUCAGCAUGAUCGAAAACGACAUGAGAGCCUACAUUCAGGUGAAAAAAGAUUUAUUUGUAGAGGAGAACUUAAAAAUGGUGGUCAUUGGGGCUGUGGCCGUCCCUUUGCUCGUGCAGAUGCCUUAAAUCGACAUUUCCGAUCGGAAGCAGGCCGAGCUUGCAUAAAUCCACUCAUAGAGGAAGACGAAUCUGAAAAUCUACGGCUAUGGAAUGAGAAACAAAUUCAAAAUAUUAAACAAA
antisense: UUUGUUUAAUAUUUUGAAUUUGUUUCUCAUUCCAUAGCCGUAGAUUUUCAGAUUCGUCUUCCUCUAUGAGUGGAUUUAUGCAAGCUCGGCCUGCUUCCGAUCGGAAAUGUCGAUUUAAGGCAUCUGCACGAGCAAAGGGACGGCCACAGCCCCAAUGACCACCAUUUUUAAGUUCUCCUCUACAAAUAAAUCUUUUUUCACCUGAAUGUAGGCUCUCAUGUCGUUUUCGAUCAUGCUGACGCGCAAAAGCUUUUGUGCACUUGGAACAGAUAAAAGGUCGCUCGUUUGUAUGCGUUCGGAGAUGGGAGCGAAGAUUAUAGGCGCGAGUAAAUUUUUUGGGGCAAAGAUGACAUUGAUAUGUUGCGGGAUGUUUUUGUACUCGCUCUAGCUUGGUCUUC
B3: GS3360 (nucleic acid)
sense: CAGUGCUCUCGCAGCAGGCCAUUUAGUCAAGAGCCAUAUGGCACAUAACAGAAGUGCUCCUAUUACAAGAAGUAAUACACCUGCUCAGAUUAGCACACACCCAUCAAUGAUAUCAACAAAUAGCAUGAGAGAAAAAUAUUGAGAUUUGAAAUUCUAAUUGUGUAAAUGAGCUCAGCUAUAUUGAAAAUAAAUUGGUAAUCUAAUAUAGAGGUAGAACUAGUUCGAUUUUUAUACUCAUUAAAAAAAGGAACUAAUAUUGGUAAAGGGUUAAGCUAUGAAAUUAGCUAUCCUUUUUUUUCCUAUUUAUUGAAAA
antisense: UUUUCAAUAAAUAGGAAAAAAAAGGAUAGCUAAUUUCAUAGCUUAACCCUUUACCAAUAUUAGUUCCUUUUUUUAAUGAGUAUAAAAAUCGAACUAGUUCUACCUCUAUAUUAGAUUACCAAUUUAUUUUCAAUAUAGCUGAGCUCAUUUACACAAUUAGAAUUUCAAAUCUCAAUAUUUUUCUCUCAUGCUAUUUGUUGAUAUCAUUGAUGGGUGUGUGCUAAUCUGAGCAGGUGUAUUACUUCUUGUAAUAGGAGCACUUCUGUUAUGUGCCAUAUGGCUCUUGACUAAAUGGCCUGCUGCGAGAGCACUG
B4: GS3362 (nucleic acid)
sense: UACCCGUCUGCAACAGGUACAGGUGGUUACGCAUCGCCAACAGGGACCAGUUACCCUACACCUACUGGAGGUUACUCUGAAGAGCCCUACCACUAUAAAGGUGUCAAGCUAGGUCAUUGAGAGGAUUGAGUUACGAAAUUUGAUUGCAGCCACGCCUUCGACUUCAACCGAGAAGAGUUCCAAUCUCCCUCUUAGACGCAGGACUACUCUCACGAUACUUCUGUCUCUACUUCUUCUCAUGAGCACGCUAAUACUCUCUAAGCCUCCGUUGAUGUGUUGAAAGACAGGCACCUCAGUUUUGAUUCUAUUCAGCUCGGCAAACAUGUUGUGUACAUUCAUAGACUGAAUUUCUUUUUUAUUAUUUUUUUCCAAAUACACUCUUCCUGGAAAAAGAAGCCCU
antisense: AGGGCUUCUUUUUCCAGGAAGAGUGUAUUUGGAAAAAAAUAAUAAAAAAGAAAUUCAGUCUAUGAAUGUACACAACAUGUUUGCCGAGCUGAAUAGAAUCAAAACUGAGGUGCCUGUCUUUCAACACAUCAACGGAGGCUUAGAGAGUAUUAGCGUGCUCAUGAGAAGAAGUAGAGACAGAAGUAUCGUGAGAGUAGUCCUGCGUCUAAGAGGGAGAUUGGAACUCUUCUCGGUUGAAGUCGAAGGCGUGGCUGCAAUCAAAUUUCGUAACUCAAUCCUCUCAAUGACCUAGCUUGACACCUUUAUAGUGGUAGGGCUCUUCAGAGUAACCUCCAGUAGGUGUAGGGUAACUGGUCCCUGUUGGCGAUGCGUAACCACCUGUACCUGUUGCAGACGGGUA
B5: GS3446 (nucleic acid)
sense: ACCCGCAGGUACUCUUAUGCUUGGAGCUGAAGGUAUUAAAGAUGCCAUAACUGGCUUCGAAGAUGCUCGUAAAGUAGAUUUAAAGAAUGAAAGAUUGCCUCCAAGUCUUGAGGAAAUUACACGAACAAGUGAAGAGGAUAGAGCUCUGGCAUUAGAGAGGGCUAAGGAAAGUGCGGAUAAUGAUCGAGGGCUUCAGAUUUUAUCUAGAAGACUCAGUUUAGUUGGCACUCAACCAAAUAGACCGCAACCGAGUAAAAUUCUGAACUCUGUUCUAGCCCUCGAUAAAGAUGUUUCUGAGAAAUAAGAGGUCGAUCAGAGUCACCUCCUGUUACAAGCUCAUUGGUUGGUCUGCAGGUACAGAAUUACUAAUCAUACCACGA
antisense: UCGUGGUAUGAUUAGUAAUUCUGUACCUGCAGACCAACCAAUGAGCUUGUAACAGGAGGUGACUCUGAUCGACCUCUUAUUUCUCAGAAACAUCUUUAUCGAGGGCUAGAACAGAGUUCAGAAUUUUACUCGGUUGCGGUCUAUUUGGUUGAGUGCCAACUAAACUGAGUCUUCUAGAUAAAAUCUGAAGCCCUCGAUCAUUAUCCGCACUUUCCUUAGCCCUCUCUAAUGCCAGAGCUCUAUCCUCUUCACUUGUUCGUGUAAUUUCCUCAAGACUUGGAGGCAAUCUUUCAUUCUUUAAAUCUACUUUACGAGCAUCUUCGAAGCCAGUUAUGGCAUCUUUAAUACCUUCAGCUCCAAGCAUAAGAGUACCUGCGGGU

tested on: E. necator; assay: Leaf disc assay, dry inoculum (settling tower), decrease in disease severity / hyphal growth (Example 2); details: decrease in disease severity (hyphal growth) relative to untreated control; time point 1 (untreated control hyphal growth ≥50%); value ± SE

B1 and B2 are within error of each other in “% decrease =/− SE TP1” value: 16 ± 3% for the first, 14 ± 9% for the second.

First: B3
Second: B4
The “% decrease =/− SE TP1” value of the first is higher: 36 ± 4% for the first, 14 ± 4% for the second.

With B5 the “% decrease =/− SE TP1” value was 36 ± 3%.

same assay, conditions: decrease in disease severity (hyphal growth) relative to untreated control; time point 2; value ± SE

B2 and B3 are within error of each other in “% decrease =/− SE TP2” value: 16 ± 10% for the first, 30 ± 5% for the second.
